This passage reports Kd and stoichiometry N results from publication PMC6195595.

Assay [1] addresses Kj12C-^NDD (N-terminal docking domain of Kj12C) (Xenorhabdus stockiae KJ12.1). The assay is described as follows: ITC; 50 µM ^NDD protein in the cell titrated with 1 mM ^CDD peptide or variant, 20 °C, 50 mM sodium phosphate pH 6.5, 100 mM NaCl, one site binding model, three independent titrations. For orientation: Isothermal titration calorimetry measures the heat released or taken up as one component is titrated into another.

For assay [2], the target named is Kj12B-^NDD (N-terminal docking domain of Kj12B) (Xenorhabdus stockiae KJ12.1). The assay is described as above.
In assay [3] the target is Kj12B thiolation domain with CDD (Xenorhabdus stockiae KJ12.1). The assay is described as follows: ITC; Kj12B T-domain-CDD in the cell (given as 50 mM) titrated with 1 mM Kj12C-NDD in the syringe; 20 °C; 50 mM sodium phosphate pH 6.5, 100 mM NaCl; one site binding model.
Assay [4] deals with Kj12B-NDD K28E (Xenorhabdus stockiae KJ12.1). The assay can be described thus: ITC; 50 µM NDD (or Kj12C construct) in the cell titrated with 1 mM CDD peptide; 20 °C; 50 mM sodium phosphate pH 6.5, 100 mM NaCl; one site binding model; three independent titrations.
Assay [5] concerns the target Kj12B-NDD K26Q, K28E (Xenorhabdus stockiae KJ12.1). Described as above.
The target of assay [6] is Kj12C-NDD-Cterm (full-length Kj12C module) (Xenorhabdus stockiae KJ12.1). Described as above.
Assay [7] deals with Kj12C-NDD Q26K, E28A (Xenorhabdus stockiae KJ12.1). Described as above.
Assay [8] concerns the target Kj12B-NDD K24R, K26Q, K28E (Xenorhabdus stockiae KJ12.1). The description is as above.
The target of assay [9] is Kj12B N-terminal docking domain (Xenorhabdus stockiae KJ12.1). The description is as above.
For assay [10], the target named is Kj12A-^NDD (N-terminal docking domain of Kj12A) (Xenorhabdus stockiae KJ12.1). The assay can be described thus: ITC; 50 µM ^NDD protein in the cell titrated with 1 mM ^CDD peptide or variant, 20 °C, 50 mM sodium phosphate pH 6.5, 100 mM NaCl, one site binding model, three independent titrations.
For assay [11], the target named is Kj12C N-terminal docking domain (Xenorhabdus stockiae KJ12.1). The assay can be described thus: ITC; 50 µM NDD (or Kj12C construct) in the cell titrated with 1 mM CDD peptide; 20 °C; 50 mM sodium phosphate pH 6.5, 100 mM NaCl; one site binding model; three independent titrations.

pKd: −log10 of the molar value.

Regarding Kj12B-^CDD_(short) peptide, in [1], the pKd was 4.82.
Still for that read-out and setting: the figure for “Kj12A-^CDD peptide with E1169R and H1171E (double mutant)” is 5.46.
In [2], Kj12B-^CDD peptide R1565E gave a pKd of 4.89.
On to “Kj12A-^CDD peptide (C-terminal docking domain of Kj12A)”, for which, in assay [1], the pKd is 4.00.
For the substance “Kj12C N-terminal docking domain (domain or fragment)”, in assay [3], the pKd is 4.72 and the stoichiometry N turned out to be 1.2 sites.
Kj12B-CDDshort peptide: the pKd in assay [4] is 4.48; in assay [5] it was 4.69; in [6], 5.10; in assay [7], 4.10. Further, the stoichiometry N is 1 sites in assay [4]; 1 sites in assay [5]; 1 sites in assay [6]; 1 sites in assay [7]; 0.97 sites in assay [8].
For Kj12B-CDDshort R1565E peptide, in assay [9], the stoichiometry N turned out to be 1.15 sites.
With “Kj12B-^CDD peptide (C-terminal docking domain of Kj12B)”, the values for the pKd in [2], in [10] and in assay [1] were 4.21, 5.10 and 5.10, respectively.
Kj12A-CDDshort E1169R, H1171E peptide: the stoichiometry N in [11] is 1.3 sites.

As a reminder, the pKd is the negative decadic logarithm of the Kd, by convention in mol/L. As a reminder, the stoichiometry N is a count of units in the complex or per binding partner.
